Assay results: US20240352105A1, “COMPOSITIONS AND METHODS FOR NEUTRALIZING ANTIGENS” (PACAGEN, INC, priority 2023, published 2024)

What was measured:
Fel D1 = target: T1, Fel D1 (Felis catus, UniProt P30438); experiment: ELISA binding assay of anti-Fel d1 VHH clones on Fel D1 epitopes; parameters: species or system cat
T1 construct: made in house; host or cells: chemically synthesized peptides
Description: 2 microgram per milliliter (μg/mL) target antigen is coated in a 96-well plate and ELISA assay is performed after incubation with candidate VHHs. The binding EC50 of each clone is calculated using Prism GraphPad. The positive control antibody is involved as an internal control.
Four distinct epitopes of Fel D1 were selected to be used for further identification. Peptides were synthesized for the four epitopes for VHH identification.
Isolated VHH clones were further validated by performing an ELISA assay as described in Example 1. Binding results are shown in FIG. 15B-15D for the epitope of SEQ ID NO: 61. Binding results are shown in FIG. 16 for the epitope of SEQ ID NO: 59. Binding results are shown in FIG. 17A-17E for the epitope of SEQ ID NO: 60. Binding results are shown in FIG. 18 for the epitope of SEQ ID NO: 58.

[1] = Thermostability (Tm, Tonset, Tagg) by Nanotemper DSF; type: physicochemical; parameters: key to Tm2 / Tagg / Tm1 / Tm / Tm3 / Tonset / Tonset ø (mean) / Tagg ø (mean): temperatures in °C; conditions: for Tm1: first melting point; for Tm2: second melting point; for Tm: single melting point
Summary of the method: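 Isolated VHH clones were heated from 20 °C to 95 °C at 1 °C/min using DSF. Tm, Tonset and Tagg were derived from the thermal curves. Where several melting transitions occurred, each was reported in order (Tm1, Tm2, etc.).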

[2] = Epitope Recognized AKMTEEDKENALS (SEQ ID NO: 60)
[3] = Average of two replicates, anti-Fel d1 VHH
[4] = Average of two replicates, anti-Fel d1 VHH, in °C (unit assumed)
[5] = Replicate 1, in °C (unit assumed)
[6] = Replicate 2, in °C (unit assumed)
[7] = anti-Fel d1 VHH, in °C (unit assumed)
[8] = Epitope Recognized ENARILKNCVDAKM (SEQ ID NO: 61)

Molecule	EC50 (Fel D1; [2]) [µg/mL]	Tagg ø (mean) [1, 3]	Tonset ø (mean) [1, 3]	Tm ø (mean), first melting point (Tm1) [1, 4]	Tagg ([1]; Replicate 1)	Tonset ([1]; Replicate 1)	Tm, first melting point (Tm1) [1, 5]	Tagg ([1]; Replicate 2)	Tonset ([1]; Replicate 2)	Tm, first melting point (Tm1) [1, 6]	Tagg ([1]; anti-Fel d1 VHH)	aggregates ([1]; anti-Fel d1 VHH)	Tm1 [1, 7]	Tm2 [1, 7]	Tm [1, 7]	further results
SDAB22110-4-3-E05: anti-Fel d1 VHH clone, SEQ ID NO: 55 (protein) VHH: QVQLVESGGGLVQPGGSLRLSCVGSGFTFSQYAMRWYRQVPGKARELVAAISRSGDFMYYADSVKGRFTISRDNVKSAVILQMNSLKPEDTAVYYCYGQATISDTLWGQGTQVTVSS	1.719	40.93	35.67	46.83	40.93	35.61	47.02	40.93	35.73	46.64	31.74	Possible	37.85	47.65		Tm3 ([1]; anti-Fel d1 VHH, third melting point, in °C (unit assumed)): 62.39
SDAB22110-4-3-B02: anti-Fel d1 VHH clone, SEQ ID NO: 54 (protein) VHH: QVQLVESGGGLVQPGGSLRLSCVASGFTFSFYTMEWYRQAAGKQRELVAGLTASGTTHYADSAKGRFTISRDNAWNTVFLQMNGLKPEDTAVYYCNAYSGYRDYWGQGTQVTVSL	12.200	35.68	33.78	42.43	35.55	33.78	42.52	35.82	33.78	42.34	40.93				46.83	
SDAB22110-4-3-G08: anti-Fel d1 VHH clone, SEQ ID NO: 56 (protein) VHH: DVQLVESGGGLVQPGGSLRLSCAASGFTFSLYYMSWYRQVPGKERELVATITSGTHATTYADSVKGRFTISRDNAKNTVSLQMNSLKREDTGVYYCKRTNAGQDPWGQGTQVTVSS	2.215	31.74	27.92		31.71	27.93		31.77	27.92		42.29				58.58	Tm ø (mean), first melting point (Tm1) [1, 3]: 37.85,; Tm ø (mean), second melting point (Tm2) [1, 4]: 47.65; Tm ø (mean), third melting point (Tm3) [1, 4]: 62.92; Tm, first melting point (Tm1) ([1]; Replicate 1): 37.77,; Tm, second melting point (Tm2) [1, 5]: 47.76; Tm, third melting point (Tm3) [1, 5]: 61.85; Tm, first melting point (Tm1) ([1]; Replicate 2): 37.92,; Tm, second melting point (Tm2) [1, 6]: 47.53; Tm, third melting point (Tm3) [1, 6]: 62.92
SDAB22110-1-1-B9-1: anti-Fel d1 VHH clone, SEQ ID NO: 50 (protein) VHH: DVQLVESGGGWVQPGGSLRLSCAASGFTFTSYALSWVRQAPGKGLEWVSLADARGTSTTYADSVKGRFTISKDNPRNTLYLLMNSLKPEDTAVYYCTKGFDGNWYPDYDYWGQGTQVTVSS		41.73	42.07	54.03	41.73	42.11	53.95	41.73	42.04	54.10	41.73	Possible	54.03	63.20		EC50 (Fel D1; [8]): 14.440 µg/mL; Tm ø (mean), second melting point (Tm2) [1, 4]: 63.20; Tm, second melting point (Tm2) [1, 5]: 63.26; Tm, second melting point (Tm2) [1, 6]: 63.15
SDAB22110-1-1-E4: anti-Fel d1 VHH clone, SEQ ID NO: 51 (protein) VHH: QLQLVESGGGLVQPGGSLRLSCTASGFTFSTAGTSWYRQSPGKARKLVAELSRIGGIANYADSVKGRFTISRDNTRNTVYLQMNSLKPEDTAVYYCKVVTNRNYGFTYWGQGTQVTVSS		39.61	40.64	50.69	39.62	40.60	50.73	39.61	40.64	50.66	42.78	Possible	41.13	52.88		EC50 (Fel D1; [8]): 3.305 µg/mL
SDAB22110-4-3-H02: anti-Fel d1 VHH clone, SEQ ID NO: 57 (protein) VHH: QLQLVESGGGLVQPGGSLRLSCEASGFTFKYYTMSWYRQAPGKERELVATITNGDRTNYADSVKGRFTISRDNAKNTLYLQMNSLKPYDTAVYYCNRHLPLLQIWGQGTQVTVSS	12.940	42.29	47.54	58.58	42.24	47.33	58.60	42.35	47.76	58.57	42.30					Tm ([1]; anti-Fel d1 VHH): 47.50
SDAB22110-3-2-H08: anti-Fel d1 VHH clone, SEQ ID NO: 53 (protein) VHH: QVQLVESGGGLVQPGGSLRLSCAASGFTFSRKGMSWYRQVPGKEREWVARIYSTGEKTDYADSVKGRFTISRDNAKNMVYLDMNSLKPEDTAVYYCKAWGYEYWNQGTQVTVSS	5.024	42.30	37.18	47.50	42.41	37.03	47.46	42.19	37.34	47.53	35.68				42.43	
